Test results as given in paper PMC6955338 (Proceedings of the National Academy of Sciences of the …, 2019).

T1: leukocidin GH (LukGH) wild-type (Staphylococcus aureus USA300 (ST8) …)
T1 chain 1: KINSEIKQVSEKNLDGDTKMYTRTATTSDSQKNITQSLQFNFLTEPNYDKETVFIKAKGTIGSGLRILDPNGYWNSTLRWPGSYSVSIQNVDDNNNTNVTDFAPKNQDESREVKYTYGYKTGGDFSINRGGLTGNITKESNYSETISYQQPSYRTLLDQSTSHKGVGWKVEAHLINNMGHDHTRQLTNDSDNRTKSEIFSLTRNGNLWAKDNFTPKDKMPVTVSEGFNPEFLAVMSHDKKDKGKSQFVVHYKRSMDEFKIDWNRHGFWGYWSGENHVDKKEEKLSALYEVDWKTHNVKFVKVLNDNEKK
T1 chain 2: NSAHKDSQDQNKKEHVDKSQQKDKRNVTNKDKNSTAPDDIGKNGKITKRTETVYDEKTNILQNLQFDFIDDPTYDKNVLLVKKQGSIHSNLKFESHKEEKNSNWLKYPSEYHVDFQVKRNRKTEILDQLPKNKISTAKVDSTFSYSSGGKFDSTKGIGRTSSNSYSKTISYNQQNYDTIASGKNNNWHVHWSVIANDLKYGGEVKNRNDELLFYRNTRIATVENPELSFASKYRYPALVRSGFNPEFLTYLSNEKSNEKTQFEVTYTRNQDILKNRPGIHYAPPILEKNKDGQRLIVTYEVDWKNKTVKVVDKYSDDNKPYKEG


Columns and labels:
[1] = target: human CD11b I-domain (huCD11b-I) (human); experiment: SAXS
[2] = target: mouse CD11b I-domain (moCD11b-I) (mouse) (UniProt P05555); experiment: BLI
mouse CD11b I-domain (moCD11b-I) (mouse), sequence (P05555 143-337): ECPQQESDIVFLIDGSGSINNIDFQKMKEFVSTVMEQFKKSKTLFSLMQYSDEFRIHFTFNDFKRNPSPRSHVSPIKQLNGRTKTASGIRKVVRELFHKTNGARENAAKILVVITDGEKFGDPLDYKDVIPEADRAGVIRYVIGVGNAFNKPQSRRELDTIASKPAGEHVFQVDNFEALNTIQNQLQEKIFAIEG

[3] = target: T1, leukocidin GH (LukGH) wild-type; experiment: SAXS

Row | binding result [3] | Molecule | stoichiometry N [1] | Kd [2]
1 | – | leukocidin GH (LukGH) wild-type (complex) | 1 | 1000 nM
2 | – | LukGH^K319A (complex) | – | 63 nM
3 | binds | Fab of αLukGH-mAb#5.H1H2 (Fab, V domains shown) VH: ELQLQESGPGLVKPSETLSLTCTVSGGSISSGSYYWDWIRQPPGKGLEWIGNIYKSGSTYYNPSLKSRVTISVDTSKNQFSLKLSSVTAADTAVYYCARERGMHYMDVWGKGTTVTVSS VL: DIQMTQSPSSLSASVGDRVTITCRASQSINSYLNWYQQKPGKAPKLLIYAASSLQSGVPSRFSGSGSGTDFTLTISSLQPEDFATYYCQQQFDPPFTFGGGTKVEIK | – | –
